Earlier results on four substances are cited in paper PMC6705211.

For series [1], the target named is H3K9me3 (UniProt P68431).
The target of series [2] is H3K9me3 (UniProt P68431). This is another data set of the same source.
Series [3] addresses H3K9me3 (UniProt P68431). This is another data set of the same source.
For series [4], the target named is H3K9me3 (UniProt P68431). The source holds these as a separate data set.

Where two headings read alike, the source gives them in different places.

Sequence of HP1a chromodomain (P05205 24-82): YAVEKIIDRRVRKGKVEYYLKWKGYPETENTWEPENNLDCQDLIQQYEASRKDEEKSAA
Sequence of HP1γ (Q13185 2-183): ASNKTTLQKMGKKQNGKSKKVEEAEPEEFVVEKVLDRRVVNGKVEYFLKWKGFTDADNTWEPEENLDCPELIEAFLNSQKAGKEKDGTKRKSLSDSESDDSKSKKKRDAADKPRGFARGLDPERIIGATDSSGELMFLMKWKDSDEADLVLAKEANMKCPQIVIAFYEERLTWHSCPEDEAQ
Sequence of HP1α chromodomain (P45973 20-78): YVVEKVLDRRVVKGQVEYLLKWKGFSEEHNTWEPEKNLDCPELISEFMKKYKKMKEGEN
Sequence of HP1β (P83916 whole entry): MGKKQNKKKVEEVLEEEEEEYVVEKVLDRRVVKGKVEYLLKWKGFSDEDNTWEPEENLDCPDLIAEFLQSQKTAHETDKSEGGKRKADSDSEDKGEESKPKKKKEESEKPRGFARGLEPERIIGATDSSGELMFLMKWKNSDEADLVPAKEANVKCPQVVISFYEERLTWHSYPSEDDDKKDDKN

In the case of HP1a chromodomain (from UniProt P05205), in series [1], the dissociation constant Kd is 4 µM.

Regarding HP1α chromodomain (from UniProt P45973), the Kd in series [2] was 13 µM.

Turning to HP1β (from UniProt P83916), in series [3], the Kd was 3 µM.

As to HP1γ (from UniProt Q13185), the Kd in series [4] was 7 µM.

For orientation: Kd means the equilibrium constant for the complex coming apart.
